Consider 1 protein from paper PMC7864055, “Biochemical and biophysical analyses of hypoxia sensing prolyl hydroxylases from Dictyostelium discoideum and Toxoplasma gondii” (The Journal of Biological Chemistry, 2021).

Substrate in the series: O=C(O)CCC(=O)C(=O)O
The experiment in a line: RapidFire SPE-MS of Skp1 hydroxylation, Michaelis-Menten fit. In kind it is biochemical, Dictyostelium discoideum. Conditions: cosubstrate, full-length DdSkp1 100 μM, Fe(II) 50 μM, L-ascorbate 1 mM, HEPES pH 7.6, 37 °C, atmospheric O2. The source says:
RapidFire SPE-MS of Skp1 hydroxylation, Michaelis-Menten fit on DdPhyA

B1: DdPhyA (Dictyostelium discoideum) (protein)
chain: MDISNLPPHIRQQILGLISKPQQNNDESSSSNNKNNLINNEKVSNVLIDLTSNLKIENFKIFNKESLNQLEKKGYLIIDNFLNDLNKINLIYDESYNQFKENKLIEAGMNKGTDKWKDKSIRGDYIQWIHRDSNSRIQDKDLSSTIRNINYLLDKLDLIKNEFDNVIPNFNSIKTQTQLAVYLNGGRYIKHRDSFYSSESLTISRRITMIYYVNKDWKKGDGGELRLYTNNPNNTNQKELKQTEEFIDIEPIADRLLIFLSPFLEHEVLQCNFEPRIAITTWIY
notes: full-length aa 1-284, E. coli BL21 Gold (DE3), N-terminal His6-ZBasic tag cleaved by TEV, EDTA-treated to remove metal
For B1, the Km was determined as 36 ± 6 µM.
